For experiment [1], the target named is GTP-tubulin (biotinylated α/β-tubulin heterodimer with GTP-bound β-tubulin) (UniProt Q71U36 1-451; Q9H4B7 1-451, biotinylated tubulin (chain and residues not stated) | biotinylated tubulin (chain and residues not stated)). Description: pull-down; supernatant depletion at equilibrium; varying concentrations of biotinylated GTP-tubulin on streptavidin-coated magnetic beads; BuGZ construct (or mEGFP control) in solution, BuGZ 1.19 μM; 4 °C; nocodazole present; depletion from the supernatant measured by immunoblotting. The following applies: both partners purified. In general terms: In western blotting, separated proteins are transferred to a membrane and probed.

Experiment [2] deals with T1, GDP-tubulin (biotinylated α/β-tubulin heterodimer with GDP-bound β-tubulin) (UniProt Q71U36 1-451; Q9H4B7 1-451, biotinylated tubulin (chain and residues not stated) | biotinylated tubulin (chain and residues not stated)). Description: pull-down; supernatant depletion at equilibrium, same assay as for GTP-tubulin but with bead-bound GDP-tubulin; BuGZ construct (or mEGFP control) in solution; fit with Equation S2 for wild-type BuGZ. The following applies: both partners purified.

Experiment [3] has as its target T1, GDP-tubulin (biotinylated α/β-tubulin …). Nature of the experiment: cell-based or functional assay.
Experiment [4] concerns the target taxol-stabilized microtubules (polymerized with a 1:10 mixture of biotin-labeled: unlabeled GTP-tubulin) (UniProt Q71U36 1-451; Q9H4B7 1-451, biotin on part of the tubulin (1:10 biotin-labeled: unlabeled; chain and residues not stated) | biotin on part of the tubulin (1:10 biotin-labeled: unlabeled; chain and residues not stated)). Nature of the experiment: pull-down; supernatant depletion at equilibrium; varying concentrations of biotin-containing taxol-stabilized microtubules on streptavidin-coated magnetic beads; BuGZ 1.19 μM; 4 °C; BuGZ left in the supernatant measured by quantitative immunoblotting; fit with a rectangular hyperbola (Equation S1). The following applies: both partners purified.

B1: BuGZ-NTD (domain or fragment)
chain: not shown
notes: BuGZ (ZNF207), Xenopus laevis, UniProt Q7ZXV8; the N-terminal 92 amino acids, which contain the two zinc fingers; The discussion says the zinc finger domain of BuGZ can be produced in bacteria; also called BuGZ's N-terminal domain; N-terminal 92 amino acids of BuGZ; source: purified
Usually Kd stands for the equilibrium constant for the complex coming apart. Take B1: the Kd turned out to be 7140 nM in experiment [1] and 1470 nM in experiment [2].

B2: Xenopus laevis BuGZ (Bub3-interacting and GLEBS motif-containing protein ZNF207), full-length wild type (natural protein)
chain: not shown
notes: BuGZ (ZNF207), Xenopus laevis, UniProt Q7ZXV8; full-length wild type; also called wild-type BuGZ; full-length BuGZ; source: purified
On to B2, for which, in experiment [3], the “GTP α-32P incorporation into 100 μM GDP-tubulin at equilibrium (1:1 GTP:GDP, 1.19 μM BuGZ, room temperature), increase relative to the control condition” value stood at 60.1%. The Kd in experiment [1] is 477 nM; in experiment [2], 45.3 nM; in experiment [4] it was 9450 nM.

For the origin of these results see paper PMC12302650, “A tubulin-binding protein that preferentially binds to GDP-tubulin and promotes GTP exchange” (The Journal of Biological Chemistry, 2025).
